From paper PMC4825002, “Fibromodulin Interacts with Collagen Cross-linking Sites and Activates Lysyl Oxidase*” (The Journal of Biological Chemistry, 2016)

Legend:
[1] = target: T1, recombinant lysyl oxidase protein (Origene) (UniProt P28300 22-417); test: ELISA; solid-phase assay: FMOD variants coated; serial dilutions of LOX; detected with anti-LOX antibody; apparent KD; conditions: both partners purified
T1 construct: lysyl oxidase; the functional rows use this molecule for it; source: bought: Origene
T1 sequence (looked up): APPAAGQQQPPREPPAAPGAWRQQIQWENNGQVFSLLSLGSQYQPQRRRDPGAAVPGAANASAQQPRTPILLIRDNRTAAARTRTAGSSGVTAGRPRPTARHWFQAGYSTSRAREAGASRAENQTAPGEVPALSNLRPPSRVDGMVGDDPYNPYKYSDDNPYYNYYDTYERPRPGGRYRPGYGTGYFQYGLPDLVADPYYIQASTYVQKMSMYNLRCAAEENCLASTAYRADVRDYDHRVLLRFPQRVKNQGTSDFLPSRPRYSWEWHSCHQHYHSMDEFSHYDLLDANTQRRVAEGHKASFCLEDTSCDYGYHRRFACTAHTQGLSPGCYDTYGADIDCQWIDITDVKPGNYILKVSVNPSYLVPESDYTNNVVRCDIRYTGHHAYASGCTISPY

[2] = target: T2, acetic acid-extracted tail tendon mouse collagen I (mouse, UniProt P11087 152-1207; Q01149 86-1125); test: ELISA; solid-phase assay: collagen coated at 10 μg/ml in PBS; serially diluted FMOD or LOX; detected with anti-His tag or anti-LOX antibodies; apparent KD; conditions: both partners purified
T2 construct: collagen I alpha1 chain, mouse, tissue-extracted; collagen I alpha2 chain, mouse, tissue-extracted; also called collagen type I; full-length collagen; source: extracted from mouse tail tendons using 20 mM acetic acid
T2 sequence (P11087 152-1207, chain 1 of 2): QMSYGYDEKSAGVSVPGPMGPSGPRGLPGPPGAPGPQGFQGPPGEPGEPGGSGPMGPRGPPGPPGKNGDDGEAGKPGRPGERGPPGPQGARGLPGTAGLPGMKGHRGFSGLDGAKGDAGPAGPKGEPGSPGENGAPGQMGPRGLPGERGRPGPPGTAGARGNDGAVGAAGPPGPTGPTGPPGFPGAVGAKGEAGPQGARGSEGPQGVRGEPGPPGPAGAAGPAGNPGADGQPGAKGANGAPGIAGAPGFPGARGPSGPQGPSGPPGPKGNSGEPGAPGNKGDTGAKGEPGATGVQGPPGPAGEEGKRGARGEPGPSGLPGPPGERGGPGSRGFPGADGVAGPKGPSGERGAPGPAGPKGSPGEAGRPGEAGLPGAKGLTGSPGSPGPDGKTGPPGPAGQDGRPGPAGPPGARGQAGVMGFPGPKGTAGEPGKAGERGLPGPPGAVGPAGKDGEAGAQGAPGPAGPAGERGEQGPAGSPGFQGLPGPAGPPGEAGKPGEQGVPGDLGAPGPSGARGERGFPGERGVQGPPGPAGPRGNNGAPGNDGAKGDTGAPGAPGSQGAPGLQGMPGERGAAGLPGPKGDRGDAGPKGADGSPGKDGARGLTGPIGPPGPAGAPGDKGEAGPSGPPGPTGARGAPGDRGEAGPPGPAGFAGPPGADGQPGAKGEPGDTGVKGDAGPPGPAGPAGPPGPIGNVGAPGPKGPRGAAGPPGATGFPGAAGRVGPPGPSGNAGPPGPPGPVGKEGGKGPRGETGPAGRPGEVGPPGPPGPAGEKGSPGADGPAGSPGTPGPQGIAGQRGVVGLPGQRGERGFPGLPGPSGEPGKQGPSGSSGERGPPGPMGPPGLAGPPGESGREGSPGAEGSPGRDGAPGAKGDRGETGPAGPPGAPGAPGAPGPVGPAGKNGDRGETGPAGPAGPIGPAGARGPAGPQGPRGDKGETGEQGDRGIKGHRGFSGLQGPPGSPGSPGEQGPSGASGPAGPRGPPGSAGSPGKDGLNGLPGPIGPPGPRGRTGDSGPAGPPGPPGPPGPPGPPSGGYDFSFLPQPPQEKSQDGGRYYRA
T2 sequence (Q01149 86-1125, chain 2 of 2): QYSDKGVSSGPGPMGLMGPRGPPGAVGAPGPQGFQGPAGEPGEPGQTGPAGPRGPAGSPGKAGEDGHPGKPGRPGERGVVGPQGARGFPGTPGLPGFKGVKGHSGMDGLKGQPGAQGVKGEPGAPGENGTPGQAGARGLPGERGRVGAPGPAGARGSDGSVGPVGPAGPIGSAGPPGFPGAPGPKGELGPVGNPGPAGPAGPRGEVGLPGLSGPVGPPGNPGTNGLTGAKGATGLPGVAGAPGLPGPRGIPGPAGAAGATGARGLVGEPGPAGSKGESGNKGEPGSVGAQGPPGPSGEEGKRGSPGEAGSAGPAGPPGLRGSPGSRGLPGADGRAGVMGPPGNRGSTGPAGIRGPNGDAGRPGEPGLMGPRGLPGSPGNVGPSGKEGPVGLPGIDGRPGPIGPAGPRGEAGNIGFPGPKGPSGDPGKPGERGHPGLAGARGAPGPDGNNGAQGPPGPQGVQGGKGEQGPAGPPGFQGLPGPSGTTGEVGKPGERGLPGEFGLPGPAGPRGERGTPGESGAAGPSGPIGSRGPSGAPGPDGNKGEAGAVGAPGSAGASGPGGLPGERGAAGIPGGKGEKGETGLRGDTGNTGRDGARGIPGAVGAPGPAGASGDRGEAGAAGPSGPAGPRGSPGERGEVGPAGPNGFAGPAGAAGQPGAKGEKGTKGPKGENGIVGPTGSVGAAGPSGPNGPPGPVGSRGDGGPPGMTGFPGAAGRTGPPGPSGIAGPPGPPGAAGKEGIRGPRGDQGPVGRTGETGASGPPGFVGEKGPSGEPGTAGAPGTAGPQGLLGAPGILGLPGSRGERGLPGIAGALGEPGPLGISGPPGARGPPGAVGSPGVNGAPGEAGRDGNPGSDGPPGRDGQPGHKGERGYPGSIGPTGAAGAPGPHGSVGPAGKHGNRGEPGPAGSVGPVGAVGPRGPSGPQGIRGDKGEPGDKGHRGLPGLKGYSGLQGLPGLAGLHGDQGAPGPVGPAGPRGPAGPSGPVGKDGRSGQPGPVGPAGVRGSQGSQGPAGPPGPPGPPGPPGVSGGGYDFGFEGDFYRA

B1: His tag-modified recombinant fibromodulin (human, amino acids 19–376) (natural protein, UniProt Q06828 19-376, looked up)
chain: QYEDDPHWWFHYLRSQQSTYYDPYDPYPYETYEPYPYGVDEGPAYTYGSPSPPDPRDCPQECDCPPNFPTAMYCDNRNLKYLPFVPSRMKYVYFQNNQITSIQEGVFDNATGLLWIALHGNQITSDKVGRKVFSKLRHLERLYLDHNNLTRMPGPLPRSLRELHLDHNQISRVPNNALEGLENLTALYLQHNEIQEVGSSMRGLRSLILLDLSYNHLRKVPDGLPSALEQLYMEHNNVYTVPDSYFRGAPKLLYVRLSHNSLTNNGLASNTFNSSSLLELDLSYNQLQKIPPVNTNLENLYLQGNRINEFSISSFCTVVDVVNFSKLQVLRLDGNEIKRSAMPADAPLCLRLASLIEI
modifications: tyrosine sulfation (positions not given)
notes: fibromodulin, human, amino acids 19-376; also called FMOD; full-length FMOD; source: 293T cells (pCEP4 vector), purified (Ni-NTA-Sepharose, Superose 6)
- Kd [1]: ~150 nM
- Kd [2]: ~250 nM
